Reference: article PMC5436579 (2017)

Target: the molecule itself

B1: AmpR effector-binding domain (protein)
chain: LLERFEGGHYRDVLTVGAVGTFTVGWLLPRLEDFQARHPFIDLRLSTHNNRVDIAAEGLDYAIRFGGGAWHGTEALALFEAPLTVLCCPEVAAQLHSPADLLQHTLLRSYRADEWPLWFQAAGLPAHAPLTRSIVFDTSLAMLEAARQGVGVALAPAAMFARQLASESIRRPFATEVSTGSYWLTRLQSRGETSAMLAFRGWLLEMAAVEARGR
  Kd: < 1000 nM
